We go through four sequences from patent US10500249B2, “Compositions and methods for preventing or treating diseases, conditions, or processes characterized by aberrant fibroblast proliferation and extracellular matrix deposition” (MOERAE MATRIX, INC., priority 2014, dated 2019).

What all share (test): Kinase Profiling Assay
What all share (format): biochemical
Common to all, as to settings: 100 μM

Experiment [1] addresses T1, PhKγ2 (h) (Homo sapiens, UniProt P15735).
T1 construct: purchased Millipore
T1 sequence (P15735 1-406): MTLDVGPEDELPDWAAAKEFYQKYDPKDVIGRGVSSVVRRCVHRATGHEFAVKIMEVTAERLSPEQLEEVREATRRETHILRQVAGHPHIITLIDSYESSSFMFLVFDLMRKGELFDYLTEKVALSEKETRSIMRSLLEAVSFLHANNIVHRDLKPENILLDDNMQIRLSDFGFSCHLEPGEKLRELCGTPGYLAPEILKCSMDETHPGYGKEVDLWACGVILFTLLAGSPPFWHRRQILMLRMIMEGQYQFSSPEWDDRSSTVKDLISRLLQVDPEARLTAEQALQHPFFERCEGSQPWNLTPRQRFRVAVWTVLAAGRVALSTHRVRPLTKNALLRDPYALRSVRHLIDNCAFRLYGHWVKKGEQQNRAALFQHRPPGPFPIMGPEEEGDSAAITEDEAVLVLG
The essentials: (§1)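 Measured twice per kinase, activity in presence of MK2 inhibitory peptide was calculated against a 100% activity control after radiometric phosphorylation of a cationic substrate, anionic filter capture and scintillation counting; one of 266 human kinases profiled for specificity.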

Experiment [2] deals with VRK2 (h) (Homo sapiens, UniProt Q86Y07). The method, boiled down:
as §1

The target of experiment [3] is BTK (h) (Homo sapiens, UniProt Q06187). The method, boiled down: as §1
Sequence of BTK (h) (Q06187 whole entry): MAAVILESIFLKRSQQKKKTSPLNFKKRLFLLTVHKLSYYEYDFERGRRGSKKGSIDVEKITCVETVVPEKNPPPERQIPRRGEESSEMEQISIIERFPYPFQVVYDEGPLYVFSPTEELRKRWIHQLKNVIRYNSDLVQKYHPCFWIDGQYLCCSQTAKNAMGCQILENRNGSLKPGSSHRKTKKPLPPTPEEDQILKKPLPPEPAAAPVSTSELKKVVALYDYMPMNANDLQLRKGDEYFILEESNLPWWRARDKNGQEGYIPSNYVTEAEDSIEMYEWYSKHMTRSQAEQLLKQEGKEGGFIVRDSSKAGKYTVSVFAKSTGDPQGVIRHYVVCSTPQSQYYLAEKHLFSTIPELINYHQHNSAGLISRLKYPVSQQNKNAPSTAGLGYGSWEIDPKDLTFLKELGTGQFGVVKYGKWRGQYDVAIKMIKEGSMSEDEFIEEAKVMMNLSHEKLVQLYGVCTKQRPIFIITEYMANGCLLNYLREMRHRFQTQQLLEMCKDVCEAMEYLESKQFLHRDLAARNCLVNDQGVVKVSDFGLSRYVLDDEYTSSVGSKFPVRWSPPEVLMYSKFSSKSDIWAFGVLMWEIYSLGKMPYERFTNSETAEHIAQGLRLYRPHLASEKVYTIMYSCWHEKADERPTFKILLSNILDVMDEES
For experiment [4], the target named is Met (h) (Homo sapiens, UniProt P08581). The essentials:
as §1

Experiment [5] concerns the target T2, PKCτ (h) (Homo sapiens, UniProt P41743).
T2 sequence (P41743 1-596): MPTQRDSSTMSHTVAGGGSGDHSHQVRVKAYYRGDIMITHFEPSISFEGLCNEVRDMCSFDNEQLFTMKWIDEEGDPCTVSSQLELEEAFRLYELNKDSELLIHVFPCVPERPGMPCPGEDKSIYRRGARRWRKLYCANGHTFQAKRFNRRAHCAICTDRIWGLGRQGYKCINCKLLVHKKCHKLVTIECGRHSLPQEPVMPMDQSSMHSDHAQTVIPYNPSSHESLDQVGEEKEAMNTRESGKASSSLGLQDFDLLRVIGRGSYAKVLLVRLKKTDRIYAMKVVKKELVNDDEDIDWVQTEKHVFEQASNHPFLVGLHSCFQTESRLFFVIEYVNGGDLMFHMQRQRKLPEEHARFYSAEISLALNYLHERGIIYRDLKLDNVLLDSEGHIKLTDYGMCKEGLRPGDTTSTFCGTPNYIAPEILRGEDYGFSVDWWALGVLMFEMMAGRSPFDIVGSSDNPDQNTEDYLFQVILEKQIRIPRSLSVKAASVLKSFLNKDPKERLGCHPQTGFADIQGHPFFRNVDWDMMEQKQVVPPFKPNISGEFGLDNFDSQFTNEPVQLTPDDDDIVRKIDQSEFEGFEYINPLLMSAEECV
The method, boiled down: as §1

In experiment [6] the target is FGFR4 (h) (Homo sapiens, UniProt P22455). The method, boiled down:
as §1

Experiment [7] has as its target LIMK1 (h) (Homo sapiens, UniProt P53667). The method, boiled down:
as §1

The target of experiment [8] is T3, Mnk2 (h) (Homo sapiens, UniProt Q9HBH9).
T3 construct: purchased Millipore
T3 sequence (Q9HBH9 whole entry): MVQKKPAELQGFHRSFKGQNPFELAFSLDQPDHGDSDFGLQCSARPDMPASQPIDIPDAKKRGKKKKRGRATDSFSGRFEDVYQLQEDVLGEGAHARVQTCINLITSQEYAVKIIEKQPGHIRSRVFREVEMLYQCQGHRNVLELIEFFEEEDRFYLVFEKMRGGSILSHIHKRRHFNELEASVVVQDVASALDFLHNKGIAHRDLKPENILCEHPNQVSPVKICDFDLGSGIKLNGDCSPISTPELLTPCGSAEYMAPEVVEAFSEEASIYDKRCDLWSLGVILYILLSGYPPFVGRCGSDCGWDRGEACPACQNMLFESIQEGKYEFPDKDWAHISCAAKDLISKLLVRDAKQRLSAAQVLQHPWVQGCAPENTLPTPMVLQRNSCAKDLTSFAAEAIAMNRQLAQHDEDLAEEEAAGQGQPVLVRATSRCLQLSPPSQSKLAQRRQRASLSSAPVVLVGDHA
The method, boiled down: as §1

The target of experiment [9] is T4, CK1δ (h) (Homo sapiens, UniProt P48730).
T4 construct: purchased Millipore
T4 sequence (P48730 whole entry): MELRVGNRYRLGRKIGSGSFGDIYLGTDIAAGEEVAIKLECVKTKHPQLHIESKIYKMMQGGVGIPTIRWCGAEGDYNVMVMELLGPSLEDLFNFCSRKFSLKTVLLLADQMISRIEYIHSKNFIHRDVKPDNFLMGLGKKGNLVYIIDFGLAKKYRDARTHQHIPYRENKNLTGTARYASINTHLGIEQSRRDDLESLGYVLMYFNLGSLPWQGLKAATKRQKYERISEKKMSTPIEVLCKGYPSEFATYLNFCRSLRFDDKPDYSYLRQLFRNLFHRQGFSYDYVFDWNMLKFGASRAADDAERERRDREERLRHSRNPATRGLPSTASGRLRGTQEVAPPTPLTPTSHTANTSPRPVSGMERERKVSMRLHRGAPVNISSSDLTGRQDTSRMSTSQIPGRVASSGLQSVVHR
The method, boiled down: as §1

In experiment [10] the target is T5, CSK (h) (Homo sapiens, UniProt P41240).
T5 construct: purchased Millipore
T5 sequence (P41240 whole entry): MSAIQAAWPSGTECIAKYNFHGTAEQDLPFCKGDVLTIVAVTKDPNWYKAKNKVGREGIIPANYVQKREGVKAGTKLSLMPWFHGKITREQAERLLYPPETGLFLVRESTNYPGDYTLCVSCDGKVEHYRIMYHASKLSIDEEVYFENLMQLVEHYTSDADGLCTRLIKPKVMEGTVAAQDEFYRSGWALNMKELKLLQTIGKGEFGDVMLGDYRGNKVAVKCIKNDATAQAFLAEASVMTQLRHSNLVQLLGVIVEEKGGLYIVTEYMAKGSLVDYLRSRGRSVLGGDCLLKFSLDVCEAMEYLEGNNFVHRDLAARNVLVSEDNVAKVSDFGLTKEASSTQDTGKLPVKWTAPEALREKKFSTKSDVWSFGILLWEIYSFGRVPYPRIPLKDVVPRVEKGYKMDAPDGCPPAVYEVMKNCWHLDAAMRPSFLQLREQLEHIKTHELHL
The essentials: as §1

Experiment [11] deals with MAPKAP-K3 (h) (Homo sapiens, UniProt Q16644). The essentials:
as §1

The target of experiment [12] is SAPK2b (h) (Homo sapiens, UniProt Q15759). The essentials:
as §1

Experiment [13] concerns the target T6, EphB2 (h) (Homo sapiens, UniProt P29323).
T6 sequence (P29323 19-1055): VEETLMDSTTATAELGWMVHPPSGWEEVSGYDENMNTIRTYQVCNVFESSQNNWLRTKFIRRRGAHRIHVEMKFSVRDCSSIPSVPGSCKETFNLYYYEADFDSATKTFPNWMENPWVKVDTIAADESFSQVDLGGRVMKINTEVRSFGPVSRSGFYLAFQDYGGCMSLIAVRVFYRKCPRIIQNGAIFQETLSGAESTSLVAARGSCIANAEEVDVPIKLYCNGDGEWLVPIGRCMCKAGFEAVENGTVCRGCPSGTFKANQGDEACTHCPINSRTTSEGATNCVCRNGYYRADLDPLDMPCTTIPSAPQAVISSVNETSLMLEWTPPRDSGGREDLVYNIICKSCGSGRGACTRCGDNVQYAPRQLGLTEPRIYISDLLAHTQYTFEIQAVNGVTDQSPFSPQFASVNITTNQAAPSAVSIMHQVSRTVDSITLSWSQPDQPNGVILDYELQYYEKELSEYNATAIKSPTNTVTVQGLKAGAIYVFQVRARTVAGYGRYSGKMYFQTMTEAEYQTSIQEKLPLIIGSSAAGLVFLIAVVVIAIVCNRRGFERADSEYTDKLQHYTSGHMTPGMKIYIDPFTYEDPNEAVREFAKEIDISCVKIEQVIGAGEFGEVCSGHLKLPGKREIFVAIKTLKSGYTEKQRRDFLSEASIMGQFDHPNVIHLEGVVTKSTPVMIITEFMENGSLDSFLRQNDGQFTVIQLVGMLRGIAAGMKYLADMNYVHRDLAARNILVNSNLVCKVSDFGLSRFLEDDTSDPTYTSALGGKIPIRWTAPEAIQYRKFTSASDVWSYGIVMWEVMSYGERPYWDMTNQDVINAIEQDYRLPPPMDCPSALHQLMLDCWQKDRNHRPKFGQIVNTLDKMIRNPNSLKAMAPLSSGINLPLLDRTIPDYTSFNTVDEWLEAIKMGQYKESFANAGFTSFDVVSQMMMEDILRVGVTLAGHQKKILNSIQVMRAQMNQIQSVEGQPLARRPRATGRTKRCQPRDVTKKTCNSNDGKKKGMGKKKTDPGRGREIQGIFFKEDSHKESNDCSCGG
The method, boiled down: as §1

Sequence of SAPK2b (h) (Q15759 whole entry): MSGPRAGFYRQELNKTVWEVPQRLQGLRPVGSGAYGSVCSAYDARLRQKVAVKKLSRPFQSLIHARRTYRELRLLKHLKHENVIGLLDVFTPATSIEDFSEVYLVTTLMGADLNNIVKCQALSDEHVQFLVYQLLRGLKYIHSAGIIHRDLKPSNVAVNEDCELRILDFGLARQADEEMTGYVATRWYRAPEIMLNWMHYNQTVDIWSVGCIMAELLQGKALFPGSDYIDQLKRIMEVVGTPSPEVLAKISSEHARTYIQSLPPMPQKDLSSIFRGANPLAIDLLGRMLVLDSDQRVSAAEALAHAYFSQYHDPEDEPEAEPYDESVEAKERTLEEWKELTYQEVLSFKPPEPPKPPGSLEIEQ
Sequence of Met (h) (P08581 25-1390): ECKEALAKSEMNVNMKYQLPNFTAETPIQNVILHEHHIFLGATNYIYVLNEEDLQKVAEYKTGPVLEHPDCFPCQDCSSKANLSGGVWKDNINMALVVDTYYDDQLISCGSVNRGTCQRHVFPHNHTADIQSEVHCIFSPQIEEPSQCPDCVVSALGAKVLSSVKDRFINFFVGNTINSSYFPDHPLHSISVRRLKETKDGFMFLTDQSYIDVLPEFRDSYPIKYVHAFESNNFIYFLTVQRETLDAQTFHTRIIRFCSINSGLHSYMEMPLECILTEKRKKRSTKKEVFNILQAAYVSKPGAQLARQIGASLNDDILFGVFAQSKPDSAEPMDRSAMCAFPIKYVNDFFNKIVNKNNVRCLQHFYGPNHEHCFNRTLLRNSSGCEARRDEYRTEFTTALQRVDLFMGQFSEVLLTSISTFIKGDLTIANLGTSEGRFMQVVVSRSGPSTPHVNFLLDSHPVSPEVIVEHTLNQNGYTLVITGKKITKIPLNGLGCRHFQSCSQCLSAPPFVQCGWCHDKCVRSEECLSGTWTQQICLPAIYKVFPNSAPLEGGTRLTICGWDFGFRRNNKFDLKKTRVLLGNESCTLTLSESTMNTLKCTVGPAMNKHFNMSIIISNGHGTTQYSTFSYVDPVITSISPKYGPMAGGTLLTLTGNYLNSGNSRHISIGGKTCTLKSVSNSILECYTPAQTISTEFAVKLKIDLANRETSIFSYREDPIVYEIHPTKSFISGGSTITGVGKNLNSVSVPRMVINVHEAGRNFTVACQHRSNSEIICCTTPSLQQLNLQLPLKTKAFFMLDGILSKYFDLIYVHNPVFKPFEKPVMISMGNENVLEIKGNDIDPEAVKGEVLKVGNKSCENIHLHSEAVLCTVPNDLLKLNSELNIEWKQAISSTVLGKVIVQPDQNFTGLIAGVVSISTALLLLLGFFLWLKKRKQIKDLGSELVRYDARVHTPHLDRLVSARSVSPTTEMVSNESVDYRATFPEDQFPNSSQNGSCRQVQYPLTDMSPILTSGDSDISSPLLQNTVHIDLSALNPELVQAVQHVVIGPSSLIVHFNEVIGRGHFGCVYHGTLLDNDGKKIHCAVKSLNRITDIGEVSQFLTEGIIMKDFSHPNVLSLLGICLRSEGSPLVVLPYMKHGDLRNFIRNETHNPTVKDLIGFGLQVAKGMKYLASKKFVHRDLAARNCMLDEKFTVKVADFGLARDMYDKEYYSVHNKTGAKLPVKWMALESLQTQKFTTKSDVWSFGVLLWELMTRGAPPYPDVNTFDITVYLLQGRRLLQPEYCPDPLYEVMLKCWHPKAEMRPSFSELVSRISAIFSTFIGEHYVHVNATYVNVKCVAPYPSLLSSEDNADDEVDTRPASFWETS
Sequence of MAPKAP-K3 (h) (Q16644 whole entry): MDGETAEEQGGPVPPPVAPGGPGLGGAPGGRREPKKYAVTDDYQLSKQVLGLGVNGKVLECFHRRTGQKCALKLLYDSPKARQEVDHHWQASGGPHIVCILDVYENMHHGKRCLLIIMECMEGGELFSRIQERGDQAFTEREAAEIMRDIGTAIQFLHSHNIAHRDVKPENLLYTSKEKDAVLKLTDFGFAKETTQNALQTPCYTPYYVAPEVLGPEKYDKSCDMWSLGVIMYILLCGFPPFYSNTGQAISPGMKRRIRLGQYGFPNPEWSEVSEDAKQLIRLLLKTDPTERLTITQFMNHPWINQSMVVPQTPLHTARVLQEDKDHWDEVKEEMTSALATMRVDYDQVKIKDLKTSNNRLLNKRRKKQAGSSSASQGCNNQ
Sequence of VRK2 (h) (Q86Y07 whole entry): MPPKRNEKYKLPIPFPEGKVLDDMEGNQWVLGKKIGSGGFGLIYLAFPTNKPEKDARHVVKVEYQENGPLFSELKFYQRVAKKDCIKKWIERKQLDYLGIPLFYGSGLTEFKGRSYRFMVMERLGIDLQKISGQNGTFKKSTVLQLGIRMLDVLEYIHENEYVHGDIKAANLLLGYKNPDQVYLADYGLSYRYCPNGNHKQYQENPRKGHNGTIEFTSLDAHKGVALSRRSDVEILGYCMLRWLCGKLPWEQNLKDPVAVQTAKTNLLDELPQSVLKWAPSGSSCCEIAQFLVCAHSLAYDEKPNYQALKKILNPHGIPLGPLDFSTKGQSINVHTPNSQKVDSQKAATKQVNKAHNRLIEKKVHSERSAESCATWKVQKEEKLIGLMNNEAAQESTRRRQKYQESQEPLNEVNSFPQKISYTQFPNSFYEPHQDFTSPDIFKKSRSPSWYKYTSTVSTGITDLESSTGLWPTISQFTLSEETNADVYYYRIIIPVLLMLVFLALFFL

As for KAFAKLAARLYRKALARQLGVAA [MMI-0400], the “% activity” value in experiment [1] came out at 38%; in experiment [2], 185%; in experiment [3], 94%; in experiment [4], 62%; in experiment [5], 46%; in experiment [6], 19%. Further, the “% activity” value in [7] was 92%; in experiment [8], 86%; in [9] it was 93%; in experiment [10], 16%; in [11] it was 7%; in experiment [12], 82%. The “% activity” value in experiment [13] was determined as 22%.
Consider “YARAAARQARAKALNRQLGVA (Mammalian) [MMI-0200]”, for which the “% activity” value in [1] came out at 86%; in [3], 100%; in experiment [4], 71%; in [5], 97%; in [6], 75%; in experiment [9] it was 92%. The “% activity” value in [10] stood at 33%; in experiment [11], 39%; in experiment [12], 95%; in [13], 128%.
As for “HRRIKAWLKKIKALARQLGVAA (Mammalian) [MMI-0500]”, the “% activity” value in experiment [1] turned out to be 16%; in experiment [2], 169%; in experiment [3], 18%; in [4], 27%; in experiment [5], 7%; in experiment [6], 3%. Further, the “% activity” value in experiment [7] turned out to be 87%; in [8], 6%; in experiment [9], 78%; in experiment [10], 2%; in experiment [11], 9%; in [12] it was 42%. The “% activity” value in experiment [13] is reported as 70%.
Turning to FAKLAARLYRKALARQLGVAA [MMI-0300], the “% activity” value stood at 46% in experiment [1]; 161% in experiment [2]; 65% in [4]; 68% in experiment [5]; 28% in experiment [6]; 88% in experiment [7]. Besides, the “% activity” value in [8] was determined as 89%; in experiment [9], 92%; in experiment [10], 49%; in experiment [11], 3%; in experiment [12], 81%; in experiment [13], 18%.
